For one substance, induction of the NFkB-linked gene (NFkB-Luc luciferase reporter) in COS cells and induction of the NFkB-linked gene (NFkB-Luc luciferase reporter) in S49 cells results are on record in patent US20040248254A1.

This experiment addresses IL-1Rrp1 and mouse ACPL polypeptide coexpressed in transfected cells (IL-18 receptor) (mouse). Description: cell-based or functional assay.

Sequence of IL-1Rrp1 and mouse ACPL polypeptide coexpressed in transfected cells (IL-18 receptor) (mouse) (Q9Z2B1 15-614): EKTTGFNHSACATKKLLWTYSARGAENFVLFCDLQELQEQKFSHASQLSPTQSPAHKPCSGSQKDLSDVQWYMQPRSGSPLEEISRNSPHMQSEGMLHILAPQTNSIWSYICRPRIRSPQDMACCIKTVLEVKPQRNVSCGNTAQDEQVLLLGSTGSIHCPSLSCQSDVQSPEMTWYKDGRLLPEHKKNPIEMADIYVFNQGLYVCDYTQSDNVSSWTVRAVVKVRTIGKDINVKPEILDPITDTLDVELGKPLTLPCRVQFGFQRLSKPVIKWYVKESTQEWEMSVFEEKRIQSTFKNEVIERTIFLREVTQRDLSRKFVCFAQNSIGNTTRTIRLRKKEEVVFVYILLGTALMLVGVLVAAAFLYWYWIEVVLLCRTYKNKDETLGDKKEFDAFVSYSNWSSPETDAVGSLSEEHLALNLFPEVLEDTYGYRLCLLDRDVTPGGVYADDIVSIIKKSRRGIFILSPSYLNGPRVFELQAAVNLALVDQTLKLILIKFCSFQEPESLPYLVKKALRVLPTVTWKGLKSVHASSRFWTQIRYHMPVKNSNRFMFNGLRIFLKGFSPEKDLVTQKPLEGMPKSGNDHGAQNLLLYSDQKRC

Regarding “murine IL-18 (PeproTech) (from UniProt P70380 36-192) (ligand)”, the induction of the NFkB-linked gene (NFkB-Luc luciferase reporter) in COS cells was found to be 10 fold and the induction of the NFkB-linked gene (NFkB-Luc luciferase reporter) in S49 cells was 300 fold.
